Experimental data published in paper PMC7948500, “Comparative interactomes of HSF1 in stress and disease reveal a role for CTCF in HSF1-mediated gene regulation” (The Journal of Biological Chemistry, 2020).

Target: T1, His6-tagged CTCF (human, UniProt P49711 1-727)
T1 construct: CTCF, human, codon-optimized for bacterial expression, in pET-15b; printed both as CTCF-His and His-CTCF; pET-15b usually adds an N-terminal His tag; also called His-CTCF; CTCF-His; source: E. coli BL21 (DE3), purified (Ni-NTA agarose)
T1 sequence (looked up): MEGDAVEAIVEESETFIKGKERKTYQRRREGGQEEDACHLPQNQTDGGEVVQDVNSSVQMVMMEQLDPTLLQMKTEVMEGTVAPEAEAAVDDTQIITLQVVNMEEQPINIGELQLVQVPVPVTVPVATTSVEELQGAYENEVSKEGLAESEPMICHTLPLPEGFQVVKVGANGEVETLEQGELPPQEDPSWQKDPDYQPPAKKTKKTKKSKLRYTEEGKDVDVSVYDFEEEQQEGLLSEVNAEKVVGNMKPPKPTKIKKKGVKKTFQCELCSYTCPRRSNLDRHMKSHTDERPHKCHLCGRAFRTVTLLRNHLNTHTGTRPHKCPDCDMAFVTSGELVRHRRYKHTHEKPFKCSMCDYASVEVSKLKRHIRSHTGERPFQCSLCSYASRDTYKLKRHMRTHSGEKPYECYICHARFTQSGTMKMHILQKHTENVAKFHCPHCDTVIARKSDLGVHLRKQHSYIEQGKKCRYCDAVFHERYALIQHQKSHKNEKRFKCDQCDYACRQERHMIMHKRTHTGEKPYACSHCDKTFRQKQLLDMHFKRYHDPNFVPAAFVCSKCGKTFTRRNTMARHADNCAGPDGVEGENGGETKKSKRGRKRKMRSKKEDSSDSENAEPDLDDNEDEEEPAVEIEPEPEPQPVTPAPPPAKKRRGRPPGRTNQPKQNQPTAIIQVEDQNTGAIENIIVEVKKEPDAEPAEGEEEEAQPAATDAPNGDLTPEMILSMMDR
Assay: pull-down; in vitro STREP pull-down: 5 nM purified His-CTCF alone or with STREP-HSF1 in 1 ml Buffer NP (50 mM NaH2PO4, 300 mM NaCl, pH 8.0), 1 h at 4 °C, MagStrep type 3 XT resin, five washes, eluted with 25 mM desthiobiotin; immunoblot
Conditions: both partners purified

B1: STREP-HSF1 (natural protein, human, UniProt Q00613 1-529, looked up)
chain: MDLPVGPGAAGPSNVPAFLTKLWTLVSDPDTDALICWSPSGNSFHVFDQGQFAKEVLPKYFKHNNMASFVRQLNMYGFRKVVHIEQGGLVKPERDDTEFQHPCFLRGQEQLLENIKRKVTSVSTLKSEDIKIRQDSVTKLLTDVQLMKGKQECMDSKLLAMKHENEALWREVASLRQKHAQQQKVVNKLIQFLISLVQSNRILGVKRKIPLMLNDSGSAHSMPKYSRQFSLEHVHGSGPYSAPSPAYSSSSLYAPDAVASSGPIISDITELAPASPMASPGGSIDERPLSSSPLVRVKEEPPSPPQSPRVEEASPGRPSSVDTLLSPTALIDSILRESEPAPASVTALTDARGHTDTEGRPPSPPPTSTPEKCLSVACLDKNELSDHLDAMDSNLDNLQTMLSSHGFSVDTSALLDLFSPSVTVPDMSLPDLDSSLASIQELLSPQEPPRPPEAENSSPDSGKQLVHYTAQPLFLLDPGSVDTGSNDLPVLFELGEGSYFSEGDGFAEDPTISLLTGSEPPKAKDPTVS
notes: HSF1, human, codon-optimized for bacterial expression; also called STREP-tagged HSF1; source: E. coli BL21 (DE3), purified (StrepTrap column)
B1: binds.
